Source: US5914109

Legend:
[1] = target: recombinant gp120IIIB (baculovirus, Repligen) (HIV-1 isolate IIIB) (UniProt P04578); experiment: Friguet method; reference: V3IIIB peptide
[2] = target: 22-mer V3 peptide of HXB2 (HIV-1 HXB2 (IIIB)); experiment: competition ELISA in solution (Friguet method); mAb after the fourth cloning
[3] = target: recombinant gp120 protein of HIVSF2 (produced in CHO cells) (HIV-1 isolate SF-2) (UniProt P03378); experiment: Friguet method; reference: V3SF-2 peptide
[4] = target: 20-mer V3 peptide of HIVSF2 (HIV-1 isolate SF-2); experiment: Friguet method, ligand in solution at equilibrium; V3 peptide of SF-2
[5] = target: 22-mer V3 peptide of HXB2 (HIV-1 HXB2 (IIIB)); experiment: competition ELISA in solution (Friguet method); mAb after the second cloning
[6] = target: gp120 of HIVMN (HIV-1 strain MN) (UniProt P05877)
[7] = target: gp120 of HTLV-IIIB (HIV-1 isolate IIIB)
[8] = target: V3-RF peptide (HIV-1 isolate RF); experiment: ELISA on V3 peptide coated plates, mAb at 10 µg/ml
[9] = target: 22-mer V3 peptide of HXB2 (HIV-1 HXB2 (IIIB)); experiment: ELISA on V3 peptide coated plates, mAb at 10 µg/ml
[10] = target: 23-mer peptide of the gp120 V3 loop of the MN strain of HIV-1 (HIV-1 strain MN); experiment: ELISA on V3 peptide coated plates, mAb at 10 µg/ml
[11] = target: V3-SC peptide (HIV-1 isolate SC); experiment: ELISA on V3 peptide coated plates, mAb at 10 µg/ml
[12] = target: V3-NY5 peptide (HIV-1 isolate NY5); experiment: ELISA on V3 peptide coated plates, mAb at 10 µg/ml
[13] = target: V3-CDC4 peptide (HIV-1 isolate CDC4); experiment: ELISA on V3 peptide coated plates, mAb at 10 µg/ml
[14] = target: 20-mer V3 peptide of HIVSF2 (HIV-1 isolate SF-2); experiment: ELISA on V3 peptide coated plates, mAb at 10 µg/ml
[15] = target: V3-WM52 peptide (HIV-1 isolate WM52); experiment: ELISA on V3 peptide coated plates, mAb at 10 µg/ml
[16] = target: 22-mer V3 peptide of HXB2 (HIV-1 HXB2 (IIIB)); experiment: Friguet method, ligand in solution at equilibrium; V3 peptide of HXB2
[17] = target: 22-mer V3 peptide of HXB2 (HIV-1 HXB2 (IIIB)); experiment: competition ELISA in solution at equilibrium (Friguet method)
[18] = target: 20-mer V3 peptide of HIVMN (American Bio-Technologies) (HIV-1 strain MN); experiment: as above
[19] = target: 20-mer V3 peptide of HIVSF2 (HIV-1 isolate SF-2); experiment: as above
[20] = target: gp120 of HIVMN (HIV-1 strain MN) (UniProt P05877); remark: listed apart in the source
[21] = target: gp120 of HTLV-IIIB (HIV-1 isolate IIIB); remark: listed apart in the source
[22] = target: recombinant gp120IIIB (baculovirus, Repligen) (HIV-1 isolate IIIB) (UniProt P04578); experiment: Friguet method, ligand in solution at equilibrium; rgp120 IIIB (row HXB2)
[23] = target: recombinant gp120 protein of HIVSF2 (produced in CHO cells) (HIV-1 isolate SF-2) (UniProt P03378); experiment: Friguet method, ligand in solution at equilibrium; rgp120 SF-2
[24] = target: 20-mer V3 peptide of HIVMN (American Bio-Technologies) (HIV-1 strain MN); experiment: Friguet method, ligand in solution at equilibrium; V3 peptide of MN
[25] = target: 20-mer V3 peptide of HIVMN (American Bio-Technologies) (HIV-1 strain MN); experiment: Friguet ELISA method, V3 MN peptide

**Q.** For human mAb 447-D (antibody), which fold stronger binding than to the V3IIIB peptide [1] is on record?
**A.** The fold stronger binding than to the V3IIIB peptide was 6 fold.

**Q.** What about the Kd [2] of the same substance?
**A.** The Kd was 16000 nM.

**Q.** What about the fold stronger binding than to the V3SF-2 peptide [3] of the same substance?
**A.** The fold stronger binding than to the V3SF-2 peptide was 90 fold.

**Q.** What about the Kd [4] of the same substance?
**A.** Its Kd is 900 nM.

**Q.** What about the Kd [5] of the same substance?
**A.** Its Kd is 64000 nM.

**Q.** What about the neutralization dose 50%, according to Nara et al. [6] of the same substance?
**A.** The neutralization dose 50%, according to Nara et al. was 0.052 µg/mL.

**Q.** And the neutralization dose 90%, according to Nara et al. [6]?
**A.** Its neutralization dose 90%, according to Nara et al. is 0.9 µg/mL.

**Q.** What about the neutralization dose 50%, according to Nara et al. [7] of the same substance?
**A.** Its neutralization dose 50%, according to Nara et al. is 1.8 µg/mL.

**Q.** What about the percent neutralization at the maximum concentration of 10 µg/ml [7] of the same substance?
**A.** Its percent neutralization at the maximum concentration of 10 µg/ml is 71%.

**Q.** And the minimum antigen concentration giving positive results (µg/ml of V3 peptide used to coat) [8]?
**A.** The minimum antigen concentration giving positive results (µg/ml of V3 peptide used to coat) was 0.4.

**Q.** What about the minimum antigen concentration giving positive results (µg/ml of V3 peptide used to coat) [9] of the same substance?
**A.** Its minimum antigen concentration giving positive results (µg/ml of V3 peptide used to coat) is 0.2.

**Q.** And the minimum antigen concentration giving positive results (µg/ml of V3 peptide used to coat) [10]?
**A.** Its minimum antigen concentration giving positive results (µg/ml of V3 peptide used to coat) is 0.01.

**Q.** What about the minimum antigen concentration giving positive results (µg/ml of V3 peptide used to coat) [11] of the same substance?
**A.** The minimum antigen concentration giving positive results (µg/ml of V3 peptide used to coat) was 0.01.

**Q.** What about the minimum antigen concentration giving positive results (µg/ml of V3 peptide used to coat) [12] of the same substance?
**A.** Its minimum antigen concentration giving positive results (µg/ml of V3 peptide used to coat) is 0.1.

**Q.** What about the minimum antigen concentration giving positive results (µg/ml of V3 peptide used to coat) [13] of the same substance?
**A.** The minimum antigen concentration giving positive results (µg/ml of V3 peptide used to coat) was 0.1.

**Q.** And the minimum antigen concentration giving positive results (µg/ml of V3 peptide used to coat) [14]?
**A.** Its minimum antigen concentration giving positive results (µg/ml of V3 peptide used to coat) is 0.01.

**Q.** What about the minimum antigen concentration giving positive results (µg/ml of V3 peptide used to coat) [15] of the same substance?
**A.** The minimum antigen concentration giving positive results (µg/ml of V3 peptide used to coat) was 0.2.

**Q.** And the Kd [16]?
**A.** The Kd was 24000 nM.

**Q.** And the Kd [17]?
**A.** Its Kd is 24000 nM.

**Q.** And the Kd [18]?
**A.** Its Kd is 560 nM.

**Q.** What about the Kd [19] of the same substance?
**A.** The Kd was 900 nM.

**Q.** And the 50% neutralization, CEM-SS syncytium-forming assay, IgG concentration [20]?
**A.** Its 50% neutralization, CEM-SS syncytium-forming assay, IgG concentration is 0.05 µg/mL.

**Q.** And the 90% neutralization, CEM-SS syncytium-forming assay, IgG concentration [20]?
**A.** Its 90% neutralization, CEM-SS syncytium-forming assay, IgG concentration is 0.92 µg/mL.

**Q.** What about the 50% neutralization, CEM-SS syncytium-forming assay, IgG concentration [21] of the same substance?
**A.** The 50% neutralization, CEM-SS syncytium-forming assay, IgG concentration was 1.8 µg/mL.

**Q.** What about the 90% neutralization, CEM-SS syncytium-forming assay, IgG concentration [21] of the same substance?
**A.** The 90% neutralization, CEM-SS syncytium-forming assay, IgG concentration was over 10 µg/mL.

**Q.** What about the Kd [22] of the same substance?
**A.** Its Kd is 3900 nM.

**Q.** And the Kd [23]?
**A.** The Kd was 10 nM.

**Q.** And the Kd [24]?
**A.** The Kd was 560 nM.

**Q.** And the Kd [25]?
**A.** The Kd was 560 nM.
